# Data taken from paper PMC8754640.
# B1: poly(A)25 (ssRNA)
# RNA: AAAAAAAAAAAAAAAAAAAAAAAAA
# What was measured:
# [1] = molecular target: His-PABP 4EA-Flag (Flag-PABP 4EA) (UniProt P11940 2-636, E178A;E180A;E182A;E189A); assay: EMSA
# [2] = molecular target: His-PABP WT-Flag (Flag-PABP) (UniProt P11940 2-636); assay: EMSA
# Chain of His-PABP WT-Flag (Flag-PABP) (P11940 2-636): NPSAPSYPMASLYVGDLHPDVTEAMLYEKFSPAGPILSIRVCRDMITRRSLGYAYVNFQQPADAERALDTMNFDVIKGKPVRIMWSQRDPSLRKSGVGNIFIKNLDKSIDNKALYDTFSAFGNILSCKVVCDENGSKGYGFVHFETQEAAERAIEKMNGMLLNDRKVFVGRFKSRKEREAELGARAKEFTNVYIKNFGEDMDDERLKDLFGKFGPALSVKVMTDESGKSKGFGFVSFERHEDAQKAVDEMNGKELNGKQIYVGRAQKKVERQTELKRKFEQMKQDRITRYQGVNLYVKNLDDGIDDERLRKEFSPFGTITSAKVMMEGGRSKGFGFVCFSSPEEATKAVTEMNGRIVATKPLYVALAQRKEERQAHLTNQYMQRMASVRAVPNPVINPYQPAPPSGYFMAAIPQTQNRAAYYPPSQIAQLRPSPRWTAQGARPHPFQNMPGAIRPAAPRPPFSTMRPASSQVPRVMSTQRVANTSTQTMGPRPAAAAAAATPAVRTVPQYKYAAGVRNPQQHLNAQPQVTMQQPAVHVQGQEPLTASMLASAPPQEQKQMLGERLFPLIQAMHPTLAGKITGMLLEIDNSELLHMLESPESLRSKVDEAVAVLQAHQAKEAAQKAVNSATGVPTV
# Chain of His-PABP 4EA-Flag (Flag-PABP 4EA) (P11940 2-636 E178A/E180A/E182A/E189A): as the sequence (P11940 2-636) above, with E177A, E179A, E181A, E188A counted along it
binder,measurement,setting,value
B1,Kd,[1],~2.2 nM
same,Kd,[2],~0.5 nM
